{"source": "paper PMC3433420", "origin": "cited, not measured here", "conditions_in_all_cases": "cited from earlier work", "key": {"[1]": {"target": "GRB7 (Homo sapiens) (UniProt Q14451)", "sequence (Q14451 426-532)": "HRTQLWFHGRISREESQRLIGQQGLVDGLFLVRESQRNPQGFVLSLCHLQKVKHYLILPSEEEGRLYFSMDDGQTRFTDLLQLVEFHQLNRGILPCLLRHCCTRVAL"}, "[2]": {"target": "SLA (Homo sapiens) (UniProt Q13239)", "sequence (Q13239 79-180)": "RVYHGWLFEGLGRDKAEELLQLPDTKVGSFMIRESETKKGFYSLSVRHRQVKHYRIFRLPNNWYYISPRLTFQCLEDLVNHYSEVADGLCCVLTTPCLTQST"}, "[3]": {"target": "FGR (Homo sapiens) (UniProt P09769)"}, "[4]": {"target": "RASA1-N (Homo sapiens) (UniProt P20936)", "sequence (P20936 176-446)": "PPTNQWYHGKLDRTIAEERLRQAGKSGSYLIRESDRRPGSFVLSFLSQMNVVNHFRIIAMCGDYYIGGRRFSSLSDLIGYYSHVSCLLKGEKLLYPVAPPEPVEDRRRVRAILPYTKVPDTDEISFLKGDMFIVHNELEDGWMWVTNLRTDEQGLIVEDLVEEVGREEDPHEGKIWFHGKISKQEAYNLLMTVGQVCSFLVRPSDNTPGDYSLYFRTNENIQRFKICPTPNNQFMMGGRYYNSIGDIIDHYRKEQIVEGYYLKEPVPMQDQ"}, "[5]": {"target": "SHC3 (Homo sapiens) (UniProt Q92529)", "sequence (Q92529 494-594)": "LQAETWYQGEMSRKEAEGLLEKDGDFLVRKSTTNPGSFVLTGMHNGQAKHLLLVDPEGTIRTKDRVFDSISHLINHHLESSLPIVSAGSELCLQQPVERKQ"}, "[6]": {"target": "PIK3R3-N (Homo sapiens) (UniProt Q92569)"}, "[7]": {"target": "SRC (Homo sapiens) (UniProt P12931)"}, "[8]": {"target": "PIK3R1-N (Homo sapiens) (UniProt P27986)", "sequence (P27986 328-723)": "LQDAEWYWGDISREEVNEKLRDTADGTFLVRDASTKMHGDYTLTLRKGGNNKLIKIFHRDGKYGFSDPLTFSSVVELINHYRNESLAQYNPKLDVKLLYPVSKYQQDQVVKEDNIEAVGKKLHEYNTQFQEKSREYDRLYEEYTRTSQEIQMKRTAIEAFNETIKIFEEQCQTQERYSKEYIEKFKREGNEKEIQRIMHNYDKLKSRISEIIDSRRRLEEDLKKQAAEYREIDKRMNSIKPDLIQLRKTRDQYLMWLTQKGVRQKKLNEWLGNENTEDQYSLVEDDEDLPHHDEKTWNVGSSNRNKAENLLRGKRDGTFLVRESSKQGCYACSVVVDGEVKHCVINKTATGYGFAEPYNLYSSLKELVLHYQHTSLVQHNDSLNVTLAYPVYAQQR"}, "[9]": {"target": "BLK (Homo sapiens) (UniProt P51451)", "sequence (P51451 119-225)": "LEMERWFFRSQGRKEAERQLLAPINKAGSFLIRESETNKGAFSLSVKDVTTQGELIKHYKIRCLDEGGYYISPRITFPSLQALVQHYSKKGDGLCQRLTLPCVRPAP"}, "[10]": {"target": "PLCG1-NC (Homo sapiens) (UniProt P19174)", "sequence (P19174 545-761)": "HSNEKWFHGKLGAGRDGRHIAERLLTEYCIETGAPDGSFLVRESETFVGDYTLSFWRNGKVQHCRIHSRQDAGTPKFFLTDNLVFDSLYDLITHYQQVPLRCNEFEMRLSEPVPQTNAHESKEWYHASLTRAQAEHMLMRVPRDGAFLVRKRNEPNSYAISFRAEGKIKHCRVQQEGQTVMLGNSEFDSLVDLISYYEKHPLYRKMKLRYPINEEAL"}, "[11]": {"target": "PIK3R3-NC (Homo sapiens) (UniProt Q92569)"}, "[12]": {"target": "VAV1 (Homo sapiens) (UniProt P15498)", "sequence (P15498 666-770)": "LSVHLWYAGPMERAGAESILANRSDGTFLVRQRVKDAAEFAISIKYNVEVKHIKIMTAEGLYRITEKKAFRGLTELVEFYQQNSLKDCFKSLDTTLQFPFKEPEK"}, "[13]": {"target": "VAV2 (Homo sapiens) (UniProt P52735)", "sequence (P52735 668-772)": "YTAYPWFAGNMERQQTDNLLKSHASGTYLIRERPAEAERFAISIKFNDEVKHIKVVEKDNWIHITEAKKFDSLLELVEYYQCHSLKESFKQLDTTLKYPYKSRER"}, "[14]": {"target": "SHC2-PTB (Homo sapiens) (UniProt P98077)", "sequence (P98077 482-582)": "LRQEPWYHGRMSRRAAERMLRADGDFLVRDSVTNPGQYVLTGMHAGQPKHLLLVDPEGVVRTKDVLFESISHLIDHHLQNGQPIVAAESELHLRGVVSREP"}, "[15]": {"target": "ABL2 (Homo sapiens) (UniProt P42684)", "sequence (P42684 168-268)": "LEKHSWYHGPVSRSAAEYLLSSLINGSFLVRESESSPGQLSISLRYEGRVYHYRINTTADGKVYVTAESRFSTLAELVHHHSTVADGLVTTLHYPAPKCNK"}, "[16]": {"target": "CRK (Homo sapiens) (UniProt P46108)", "sequence (P46108 8-123)": "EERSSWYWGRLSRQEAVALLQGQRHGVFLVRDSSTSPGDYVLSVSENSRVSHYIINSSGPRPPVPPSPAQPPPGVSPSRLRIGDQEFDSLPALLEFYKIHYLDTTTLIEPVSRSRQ"}, "[17]": {"target": "ABL1 (Homo sapiens) (UniProt P00519)", "sequence (P00519 122-222)": "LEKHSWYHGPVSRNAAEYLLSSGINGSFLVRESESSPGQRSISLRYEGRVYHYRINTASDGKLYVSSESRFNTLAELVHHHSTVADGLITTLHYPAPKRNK"}, "[18]": {"target": "PIK3R1-C (Homo sapiens) (UniProt P27986)", "sequence (P27986 328-723)": "as the sequence (P27986 328-723) above"}, "[19]": {"target": "PIK3R3-N (Homo sapiens) (UniProt Q92569)", "remark": "listed apart in the source"}, "[20]": {"target": "DAPP1 (Homo sapiens) (UniProt Q9UN19)", "sequence (Q9UN19 30-134)": "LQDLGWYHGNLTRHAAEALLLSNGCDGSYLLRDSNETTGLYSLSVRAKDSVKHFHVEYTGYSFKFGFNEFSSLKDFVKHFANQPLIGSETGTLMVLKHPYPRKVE"}, "[21]": {"target": "SYK-NC (Homo sapiens) (UniProt P43405)"}, "[22]": {"target": "BLK (Homo sapiens) (UniProt P51451)", "remark": "listed apart in the source"}, "[23]": {"target": "ITK (Homo sapiens) (UniProt Q08881)", "sequence (Q08881 234-343)": "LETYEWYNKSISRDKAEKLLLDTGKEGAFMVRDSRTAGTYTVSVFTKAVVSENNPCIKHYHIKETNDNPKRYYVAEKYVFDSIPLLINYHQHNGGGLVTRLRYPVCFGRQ"}, "[24]": {"target": "SH2B3 (Homo sapiens) (UniProt Q9UQQ2)", "sequence (Q9UQQ2 359-467)": "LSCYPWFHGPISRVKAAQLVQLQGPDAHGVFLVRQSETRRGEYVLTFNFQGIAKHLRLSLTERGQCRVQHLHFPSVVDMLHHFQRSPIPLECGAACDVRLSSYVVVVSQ"}, "[25]": {"target": "FGR (Homo sapiens) (UniProt P09769)", "remark": "listed apart in the source"}, "[26]": {"target": "VAV2 (Homo sapiens) (UniProt P52735)", "remark": "listed apart in the source"}, "[27]": {"target": "BMX (Homo sapiens) (UniProt P51813)", "sequence (P51813 291-397)": "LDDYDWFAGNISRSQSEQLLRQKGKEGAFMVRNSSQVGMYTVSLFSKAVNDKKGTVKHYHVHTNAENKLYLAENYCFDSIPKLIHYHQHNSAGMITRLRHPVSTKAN"}, "[28]": {"target": "RASA1-NC (Homo sapiens) (UniProt P20936)", "sequence (P20936 176-446)": "as the sequence (P20936 176-446) above"}, "[29]": {"target": "RASA1-NC (Homo sapiens) (UniProt P20936)", "remark": "listed apart in the source"}, "[30]": {"target": "PIK3R3-C (Homo sapiens) (UniProt Q92569)"}, "[31]": {"target": "BTK (Homo sapiens) (UniProt Q06187)", "sequence (Q06187 276-382)": "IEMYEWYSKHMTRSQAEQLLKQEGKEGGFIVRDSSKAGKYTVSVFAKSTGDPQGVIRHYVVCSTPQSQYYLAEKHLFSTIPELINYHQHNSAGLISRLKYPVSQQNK"}}, "note": "Like-named read-outs stand apart in the source and are kept apart here."}
{"substance": "…pYLVPQQGF", "values": [{"measurement": "apparent Kd (screen)", "setting": "[1]", "value": 1800, "unit": "nM"}, {"measurement": "apparent Kd (screen)", "setting": "[2]", "value": 2000, "unit": "nM"}, {"measurement": "apparent Kd (screen)", "setting": "[3]", "value": 2000, "unit": "nM"}, {"measurement": "apparent Kd (screen)", "setting": "[4]", "value": 2000, "unit": "nM"}, {"measurement": "apparent Kd (screen)", "setting": "[5]", "value": 2000, "unit": "nM"}, {"measurement": "apparent Kd (screen)", "setting": "[6]", "value": 1930, "unit": "nM"}, {"measurement": "apparent Kd (screen)", "setting": "[7]", "value": 757, "unit": "nM"}]}
{"substance": "…pYLIPQQGFd", "values": [{"measurement": "apparent Kd (screen)", "setting": "[8]", "value": 646, "unit": "nM"}, {"measurement": "apparent Kd (screen)", "setting": "[9]", "value": 658, "unit": "nM"}, {"measurement": "apparent Kd (screen)", "setting": "[10]", "value": 794, "unit": "nM"}, {"measurement": "apparent Kd (screen)", "setting": "[11]", "value": 203, "unit": "nM"}, {"measurement": "apparent Kd (screen)", "setting": "[12]", "value": 1050, "unit": "nM"}, {"measurement": "apparent Kd (screen)", "setting": "[13]", "value": 2000, "unit": "nM"}, {"measurement": "apparent Kd (screen)", "setting": "[14]", "value": 664, "unit": "nM"}]}
{"substance": "…pYEEMRAFQ", "values": [{"measurement": "apparent Kd (screen)", "setting": "[15]", "value": 44, "unit": "nM"}, {"measurement": "apparent Kd (screen)", "setting": "[16]", "value": 1500, "unit": "nM"}, {"measurement": "apparent Kd (screen)", "setting": "[17]", "value": 633, "unit": "nM"}, {"measurement": "apparent Kd (screen)", "setting": "[18]", "value": 64, "unit": "nM"}, {"measurement": "apparent Kd (screen)", "setting": "[19]", "value": 58, "unit": "nM"}, {"measurement": "apparent Kd (screen)", "setting": "[20]", "value": 999, "unit": "nM"}]}
{"substance": "…pYWDQDPPE", "values": [{"measurement": "apparent Kd (screen)", "setting": "[21]", "value": 456, "unit": "nM"}, {"measurement": "apparent Kd (screen)", "setting": "[22]", "value": 52, "unit": "nM"}, {"measurement": "apparent Kd (screen)", "setting": "[23]", "value": 2000, "unit": "nM"}, {"measurement": "apparent Kd (screen)", "setting": "[24]", "value": 2000, "unit": "nM"}, {"measurement": "apparent Kd (screen)", "setting": "[25]", "value": 2000, "unit": "nM"}, {"measurement": "apparent Kd (screen)", "setting": "[26]", "value": 2000, "unit": "nM"}, {"measurement": "apparent Kd (screen)", "setting": "[27]", "value": 2000, "unit": "nM"}, {"measurement": "apparent Kd (screen)", "setting": "[28]", "value": 224, "unit": "nM"}, {"measurement": "apparent Kd (screen)", "setting": "[29]", "value": 2000, "unit": "nM"}, {"measurement": "apparent Kd (screen)", "setting": "[30]", "value": 2000, "unit": "nM"}, {"measurement": "apparent Kd (screen)", "setting": "[31]", "value": 2000, "unit": "nM"}]}
